Test [1] concerns the target T1, full-length human Apaf-1 (residues 1–1248) (human, UniProt O14727 1-1248).
T1 construct: Seven copies stand in the apoptosome that forms with CytC and dATP; source: Hi-5 insect cells (baculovirus), purified (Ni-NTA, gel filtration Superose 6)
T1 sequence (looked up): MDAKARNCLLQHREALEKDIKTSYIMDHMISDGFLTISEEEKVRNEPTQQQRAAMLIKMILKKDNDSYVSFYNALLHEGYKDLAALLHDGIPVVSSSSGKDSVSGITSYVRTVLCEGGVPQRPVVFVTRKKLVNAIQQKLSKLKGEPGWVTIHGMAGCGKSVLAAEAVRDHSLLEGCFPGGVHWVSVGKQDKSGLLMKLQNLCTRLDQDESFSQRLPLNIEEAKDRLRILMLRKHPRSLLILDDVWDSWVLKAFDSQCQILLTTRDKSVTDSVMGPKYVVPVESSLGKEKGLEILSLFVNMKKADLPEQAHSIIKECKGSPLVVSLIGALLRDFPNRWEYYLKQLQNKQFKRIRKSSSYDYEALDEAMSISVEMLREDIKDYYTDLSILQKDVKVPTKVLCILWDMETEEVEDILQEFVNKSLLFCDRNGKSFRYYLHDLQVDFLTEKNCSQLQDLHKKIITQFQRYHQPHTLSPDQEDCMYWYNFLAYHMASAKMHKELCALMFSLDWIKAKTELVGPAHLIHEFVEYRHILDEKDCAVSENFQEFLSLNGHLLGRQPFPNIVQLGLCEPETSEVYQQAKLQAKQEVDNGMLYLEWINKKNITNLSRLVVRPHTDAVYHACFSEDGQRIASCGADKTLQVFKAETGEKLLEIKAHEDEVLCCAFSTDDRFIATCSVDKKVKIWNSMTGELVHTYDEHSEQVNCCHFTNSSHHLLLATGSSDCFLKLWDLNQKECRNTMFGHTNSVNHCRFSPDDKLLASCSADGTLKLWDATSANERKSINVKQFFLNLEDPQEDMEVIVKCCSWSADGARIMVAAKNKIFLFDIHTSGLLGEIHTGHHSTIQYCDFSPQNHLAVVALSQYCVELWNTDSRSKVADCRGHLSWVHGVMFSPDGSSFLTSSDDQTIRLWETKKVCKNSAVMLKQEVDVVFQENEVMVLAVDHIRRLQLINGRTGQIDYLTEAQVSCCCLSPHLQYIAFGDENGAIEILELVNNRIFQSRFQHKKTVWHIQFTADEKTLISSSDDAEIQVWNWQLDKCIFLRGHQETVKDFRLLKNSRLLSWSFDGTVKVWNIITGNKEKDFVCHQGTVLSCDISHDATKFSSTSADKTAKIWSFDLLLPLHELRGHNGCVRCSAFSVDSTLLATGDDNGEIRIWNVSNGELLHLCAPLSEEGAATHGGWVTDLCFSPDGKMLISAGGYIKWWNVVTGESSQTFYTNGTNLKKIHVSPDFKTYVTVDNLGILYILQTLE
Put plainly: ITC; Apaf-1 4 μM, CytC 60 μM; 100 mM KCl, 20 mM HEPES pH 7.5; 22°C; VP-ITC. The settings on record: both partners purified.

In test [2] the target is T1, full-length human Apaf-1 (residues …). Kind of test: SEC; Apaf-1 incubated with CytC at a molar ratio of 1:2, Superdex-200 increase 5/150; 100 mM KCl, 20 mM HEPES pH 7.5, 5 mM DTT; fractions on SDS-PAGE; no dATP named. The settings on record: both partners purified. For orientation: Size exclusion chromatography separates by hydrodynamic size, large species first.

B1: untagged, full-length horse CytC (wild type, recombinant) (natural protein)
chain: not shown
notes: cytochrome c, horse (Equus caballus), untagged, full length; Purification as in Yu et al. 2001; also called cytochrome c; wild-type CytC; source: E. coli BL21 (DE3), coexpressed with the yeast heme lyase CYC3, purified
In test [1], B1 came in with a Ka of about 2.04e+06 M⁻¹ and a Kd of about 490 nM.

B2: horse CytC K87W (natural protein)
chain: not shown
notes: cytochrome c, horse, untagged, full length, mutant K87W; source: E. coli BL21 (DE3), coexpressed with the yeast heme lyase CYC3, purified
Turning to B2, the binding result in test [2] is “binds”.

The Kd is a measure of binding affinity in units of concentration.

Source of the values: PMC4691890, “Atomic structure of the apoptosome: mechanism of cytochrome c- and dATP-mediated activation of Apaf-1” (Genes & Development, 2015).
